Here are results for 2 substances from article PMC7912905.

The target of assay [1] is phosphorylated form of RNAP II in both wt MEFs and HeLa cells. Description: FRET or BRET; FLIM-FRET on wt MEFs or HeLa cells transiently transfected with EGFP-SRSF2 (donor), fixed and immunostained for lamin A or RNA polymerase II pS5 (acceptor, secondary antibody Alexa Fluor 594); E ≥ 25% taken as interaction.
For assay [2], the target named is β-catenin (mouse (endogenous in MEFs)) (UniProt Q02248). Briefly: FRET or BRET; FLIM-FRET on fixed, immunostained mitotic cells with normal A-type lamins (lmna wt MEFs); SC-35 donor (Cy3), β-catenin acceptor (Cy5); E ≥ 25% taken as interaction.
Sequence of β-catenin (mouse (endogenous in MEFs)) (Q02248 whole entry): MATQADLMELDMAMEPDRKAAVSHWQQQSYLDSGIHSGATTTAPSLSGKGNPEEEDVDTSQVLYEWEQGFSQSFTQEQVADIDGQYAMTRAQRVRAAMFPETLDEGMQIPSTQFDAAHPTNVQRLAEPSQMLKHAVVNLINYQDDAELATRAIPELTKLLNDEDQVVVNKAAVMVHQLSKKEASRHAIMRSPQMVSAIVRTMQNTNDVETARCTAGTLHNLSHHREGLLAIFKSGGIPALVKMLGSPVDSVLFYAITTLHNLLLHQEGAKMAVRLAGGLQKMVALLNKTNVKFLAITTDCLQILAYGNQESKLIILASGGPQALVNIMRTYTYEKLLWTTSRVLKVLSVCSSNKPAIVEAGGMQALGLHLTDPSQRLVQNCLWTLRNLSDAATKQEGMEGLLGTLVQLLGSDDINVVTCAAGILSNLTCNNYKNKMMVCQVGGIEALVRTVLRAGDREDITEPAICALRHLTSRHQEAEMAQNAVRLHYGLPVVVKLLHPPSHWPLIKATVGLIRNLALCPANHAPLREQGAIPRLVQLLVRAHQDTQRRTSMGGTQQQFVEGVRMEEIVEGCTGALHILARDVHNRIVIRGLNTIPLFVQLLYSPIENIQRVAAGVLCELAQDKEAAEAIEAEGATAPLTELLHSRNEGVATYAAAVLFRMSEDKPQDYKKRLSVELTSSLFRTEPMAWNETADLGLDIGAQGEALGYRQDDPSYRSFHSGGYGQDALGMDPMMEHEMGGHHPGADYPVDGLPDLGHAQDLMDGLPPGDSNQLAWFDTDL
In assay [3] the target is phosphorylated form of RNA polymerase II (CTD repeat YSPTSPS, phospho S5), in mouse embryonic fibroblasts (mouse (endogenous in MEFs)) (UniProt P08775). Description: FRET or BRET; FLIM-FRET on fixed, immunostained interphase lmna wt cells (MEFs); SC-35 donor (secondary antibody Cy3), RNA polymerase II pS5 acceptor (secondary antibody Cy5); E ≥ 25% taken as interaction.

Sequence of EGFP-tagged SRSF2 (Q01130 whole entry): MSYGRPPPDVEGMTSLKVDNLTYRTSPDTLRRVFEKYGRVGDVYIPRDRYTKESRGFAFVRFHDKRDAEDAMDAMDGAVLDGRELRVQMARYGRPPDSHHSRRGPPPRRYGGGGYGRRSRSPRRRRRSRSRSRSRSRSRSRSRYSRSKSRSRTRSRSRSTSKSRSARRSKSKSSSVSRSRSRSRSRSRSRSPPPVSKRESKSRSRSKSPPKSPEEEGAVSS

As for “EGFP-tagged SRSF2 (from UniProt Q01130 1-221) (natural protein)”, the FRET efficiency in assay [1] fell in the range of 27 to 29%. Take “SC-35 protein (serine/arginine-rich splicing factor 2, encoded by the SRSF2 gene) (from UniProt Q62093 1-221) (natural protein)”: the values for the FRET efficiency in assay [2] and in assay [3] were 36.5% and 75%, respectively.
